In publication doi:10.1101/2025.08.01.668090, “Target Preference Maps: A machine learning model generalizing transferable drug-receptor interactions and guiding drug discovery” (bioRxiv, 2025):
Where no end group is shown, it is not given here.

Molecular target: T1, N-terminal domain of T. brucei PEX14 (residues 19-84) (T. brucei, UniProt Q38CL4 19-84)
T1 construct: also called N-His-PEX14; source: E. coli BL21(DE3), purified (Ni-NTA, Superdex 75); not shown: His tag, N-terminal, kept
T1 sequence (looked up): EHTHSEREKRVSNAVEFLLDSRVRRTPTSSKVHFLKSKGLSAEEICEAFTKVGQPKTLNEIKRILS
Assay: AlphaScreen or HTRF; 3 nM N-His-PEX14 with 10 nM biotinylated PEX5-derived peptide in PBS with 5 mg/mL BSA and 0.01 % (v/v) Tween-20; streptavidin donor beads and nickel chelate acceptor beads, 5 ug/mL each; competition with small-molecule inhibitors (600-0 uM), 5% DMSO
Details: both partners purified

B1: biotinylated PEX5-derived peptide (ALSENWAQEFLA) (peptide)
peptide: ALSENWAQEFLA
modifications: also: biotinylated (position not given here)
notes: PEX5-derived peptide with a WxxxF motif; Held on streptavidin donor beads by its biotin; The same peptide was used with PEX14 of all three species
B1: binds.
